{"source": "paper PMC8026125", "about": "(Science Advances, 2021)", "binders": {"B1": {"name": "Kin28 (enzyme)", "chain": "MKVNMEYTKEKKVGEGTYAVVYLGCQHSTGRKIAIKEIKTSEFKDGLDMSAIREVKYLQEMQHPNVIELIDIFMAYDNLNLVLEFLPTDLEVVIKDKSILFTPADIKAWMLMTLRGVYHCHRNFILHRDLKPNNLLFSPDGQIKVADFGLARAIPAPHEILTSNVVTRWYRAPELLFGAKHYTSAIDIWSVGVIFAELMLRIPYLPGQNDVDQMEVTFRALGTPTDRDWPEVSSFMTYNKLQIYPPPSRDELRKRFIAASEYALDFMCGMLTMNPQKRWTAVQCLESDYFKELPPPSDPSSIKIRN", "modifications": "phosphothreonine at 162 (pT162)"}, "B2": {"name": "Tfb3 (natural protein)", "chain": "MLMDEYEENKDMCPICKTDRYLSPDVKFLVNPECYHRICESCVDRIFSLGPAQCPYKGCDKILRKNKFKTQIFDDVEVEKEVDIRKRVFNVFNKTIDDFNGDLVEYNKYLEEVEDIIYKLDHGIDVAKTEEKLRTYEELNKQLIMNNLERSRTEIESFEQRQKFEKEMKLKKRLLERQIEEEERMNKEWTKKEIVNRLSTTTQDINETIEGVKNTVKLKKSSARRKLEELNRVLKNNPYFNSNVNVQNSRLKDAVPFTPFNGDREAHPRFTLKGSVYNDPFIKDLEHRKEFIASGFNTNYAYERVLTEAFMGLGCVISEEL"}}, "key": {"Ccl1": {"molecular_target": "T1, Ccl1 (yeast, UniProt P37366 1-393)", "T1 sequence": "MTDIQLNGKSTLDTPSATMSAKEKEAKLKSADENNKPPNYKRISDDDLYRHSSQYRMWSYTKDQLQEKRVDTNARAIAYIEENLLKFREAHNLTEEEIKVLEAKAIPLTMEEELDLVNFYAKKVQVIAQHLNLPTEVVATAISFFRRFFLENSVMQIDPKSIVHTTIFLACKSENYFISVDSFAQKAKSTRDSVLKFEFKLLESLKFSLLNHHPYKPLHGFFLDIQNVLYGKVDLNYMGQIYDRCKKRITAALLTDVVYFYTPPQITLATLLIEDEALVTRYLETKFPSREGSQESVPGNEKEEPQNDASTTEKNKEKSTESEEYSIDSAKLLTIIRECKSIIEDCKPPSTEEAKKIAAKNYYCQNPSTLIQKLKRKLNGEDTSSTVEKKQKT", "experiment": "cryo-EM structure"}, "Tfb3": {"molecular_target": "B2", "experiment": "cryo-EM structure"}}}
{"binder": "B1", "values": [{"measurement": "binding result", "setting": "Ccl1", "result": "binds"}, {"measurement": "binding result", "setting": "Tfb3", "result": "binds"}]}
{"binder": "B2", "values": [{"measurement": "binding result", "setting": "Ccl1", "result": "binds"}]}
